Consider eight molecules from patent US20100022453A1 (UNIVERSITY OF ROCHESTER, published 2010).

First the molecules themselves.
B1: AP-FGF8 (mouse) (ligand, UniProt P37237-2 23-215, looked up)
chain: QVTVQSSPNFTQHVREQSLVTDQLSRRLIRTYQLYSRTSGKHVQVLANKRINAMAEDGDPFAKLIVETDTFGSRVRVRGAETGLYICMNKKGKLIAKSNGKGKDCVFTEIVLENNYTALQNAKYEGWYMAFTRKGRPRKGSKTRQHQREVHFMKRLPRGHHTTEQSLRFEFLNYPPFTRSLRGSQRTWAPEPR
notes: also called FGF8b; not shown: human placental alkaline phosphatase (AP) tag
B2: AP-FGF2 (mouse), alkaline phosphatase tagged FGF2 (ligand, UniProt P15655 10-154, looked up)
chain: PALPEDGGAAFPPGHFKDPKRLYCKNGGFFLRIHPDGRVDGVREKSDPHVKLQLQAEERGVVSIKGVCANRYLAMKEDGRLLASKCVTEECFFFERLESNNYNTYRSRKYSSWYVALKRTGQYKLGSKTGPGQKAILFLPMSAKS
notes: also called bFGF; basic FGF; not shown: human placental alkaline phosphatase (AP) tag
B3: rat NgR1 (Nogo-66 receptor), full-length, expressed on cells (receptor)
chain: CPGACVCYNEPKVTTSCPQQGLQAVPTGIPASSQRIFLHGNRISYVPAASFQSCRNLTILWLHSNALAGIDAAAFTGLTLLEQLDLSDNAQLRVVDPTTFRGLGHLHTLHLDRCGLQELGPGLFRGLAALQYLYLQDNNLQALPDNTFRDLGNLTHLFLHGNRIPSVPEHAFRGLHSLDRLLLHQNHVARVHPHAFRDLGRLMTLYLFANNLSMLPAEVLVPLRSLQYLRLNDNPWVCDCRARPLWAWLQKFRGSSSEVPCNLPQRLAGRDLKRLAASDLEGCAVASGPFRPFQTNQLTDEELLGLPKCCQPDAADKASVLEPGRPASAGNALKGRVPPGDTPPGNGSGPRHINDSPFGTLPGSAEPPLTALRPGGSEPPGLPTTGPRRRPGCSRKNRTRSHCRLGQAGSGSSGTGDAEGS
notes: also called Nogo receptor NgR1; NgR1 in COS cells
B4: AP-FGF21 (mouse) (ligand, UniProt Q9JJN1 29-210, looked up)
chain: AYPIPDSSPLLQFGGQVRQRYLYTDDDQDTEAHLEIREDGTVVGAAHRSPESLLELKALKPGVIQILGVKASRFLCQQPDGALYGSPHFDPEACSFRELLLEDGYNVYQSEAHGLPLRLPQKDSPNQDATSWGPVRFLPMPGLLHEPQDQAGFLPPEPPDVGSSDPLSMVEPLQGRSPSYAS
notes: not shown: human placental alkaline phosphatase (AP) tag
B5: AP-FGF4 (mouse) (ligand, UniProt P11403 30-202, looked up)
chain: APNGTRHAELGHGWDGLVARSLARLPVAAQPPQAAVRSGAGDYLLGLKRLRRLYCNVGIGFHLQVLPDGRIGGVHADTRDSLLELSPVQRGVVSIFGVASRFFVAMSSRGKLFGVPFFTDECKFKEILLPNNYNAYESYAYPGMFMALSKNGRTKKGNRVSPTMKVTHFLPRL
notes: as for B4
B6: rat NgR3 expressed on COS-7 cells (receptor, UniProt Q80WD0 25-424, looked up)
chain: CPRDCVCYPSPMTVSCQAHNFAAIPEGIPEDSERIFLQNNHITFLQQGHFSPAMVTLWIYSNNITFIAPNTFEGFVHLEELDLGDNRQLRTLAPETFQGLVKLHALYLYKCGLSSLPAGIFGGLHSLQYLYLQDNHIEYLQDDIFVDLVNLSHLFLHGNKLWSLGQGIFRGLVNLDRLLLHENQLQWVHHKAFHDLHRLTTLFLFNNSLTELQGDCLAPLVALEFLRLNGNAWDCGCRARSLWEWLRRFRGSSSVVPCATPELRQGQDLKSLRVEDFRNCTGPASPHQIKSHTLSTSDRAARKEHHPSHGASRDKGHPHGHLPGSRSGSKKPGKNCTSHRNRNQISKGSAGKELPELQDYAPDYQHKFSFDIMPTARPKRKGKCARRTPIRAPSGVQQAS
notes: whole, on cells; also called NgR3 in COS cells
B7: Nogo66-Npn1 (human Nogo66 fused to the transmembrane and cytoplasmic portion of rat neuropilin-1) on COS-7 cells (other, human;rat, UniProt Q9NQC3 1055-1120, looked up)
chain: RIYKGVIQAIQKSDEGHPFRAYLESEVAISEELVQKYSNSALGHVNCTIKELRRLFLVDDLVDSLKILITIIAMSALGVLLGAVCGVVLYCACWHNGMSERNLSALENYNFELVDGVKLKKDKLNPQSNYSEA
notes: domain: Nogo66;domain: transmembrane and cytoplasmic portion; Chimeric cell-surface form of Nogo66; also called Nogo66-Npn1 in COS cells
B8: rat NgR2, full-length, expressed on COS-7 cells (receptor)
chain: CPMLCTCYSSPPTVSCQANNFSSVPLSLPPSTQRLFLQNNLIRSLRPGTFGPNLLTLWLFSNNLSTIYPGTFRHLQALEELDLGDNRHLRSLEPDTFQGLERLQSLHLYRCQLSSLPGNIFRGLVSLQYLYLQENSLLHLQDDLFADLANLSHLFLHGNRLRLLTEHVFRGLGSLDRLLLHGNRLQGVHRAAFHGLSRLTILYLFNNSLASLPGEALADLPALEFLRLNANPWACDCRARPLWAWFQRARVSSSDVTCATPPERQGRDLRTLRDTDFQACPPPTPTRPGSRARGNSSSNHLYGVAEAGAPPADPSTLYRDLPAEDSRGRQGGDAPTEDDYWGGYGGEDQRGEQTCPGAAC
notes: also called NgR2 in COS cells

The target in experiment [1] is B8. Briefly: AP-ligand binding to NgR2 on COS cells. As to the method: (§1) Techniques for ligand binding to NgR1 on COS cells is described in detail in Venkatesh et al. (2005) Journal of Neuroscience 25:808-22, which is incorporated herein by reference in its entirety at least for the methods taught therein. Briefly, receptor constructs were expressed transiently in COS-7 cells in 24-well plates coated with poly-D-lysine (PDL; 50 μg/ml), using Lipofectamine 2000. At 24 h after transfection the cells were rinsed and incubated for 75 min at ambient temperature with alkaline phosphatase tagged FGF1, FGF2, FGF4, FGF8, FGF9, and FGF21. To monitor bound ligand, plates were developed with NBT/BCIP substrate; the color reaction was stopped by two rinses in PBS. For quantification of ligand binding the cells were processed as described above; after ligand incubation the cells were rinsed in HBHA and lysed in 20 mM Tris, pH 8.0, 0.1% Triton X-100. The lysates were incubated at 65° C. for 60 min and spun at 10,000×g for 5 min. The relative AP activity in supernatants was normalized to cell surface receptor expression, using anti-myc (1:1000), anti-NgR1 (1:1000), anti-NgR2 (1:1000), or anti-NgR3 (1:200) antibodies, as described previously (Giger et al., Neuron 21:1079-92, 1998). Scatchard plot analysis was performed analogous to a previous study (Kolodkin et al., Cell 90:753-62, 1997).

Experiment [2] has as its target B3. Briefly: AP-ligand binding to NgR1 on COS-7 cells. As to the method: as §1
In experiment [3] the target is B3. Briefly: AP-tagged ligand binding to NgR1 on COS cells. As to the method: as §1
The target in experiment [4] is B3. The experiment in a line: Scatchard plot analysis of AP-ligand binding to NgR1 on COS-7 cells. As to the method: as §1, with “The relative AP activity in supernatants was normalized to cell surface receptor expression, using anti-myc (1:1000), anti-NgR1 (1:1000), anti-NgR2 (1:1000), or anti-NgR3 (1:200) antibodies, as described previously (Giger et al., Neuron 21:1079-92, 1998). Scatchard plot analysis was performed analogous to a previous study (Kolodkin et al., Cell 90:753-62, 1997).” left out
To address whether NgR1 interacts directly with FGF2, affinity precipitation experiments were performed. […] The complexes of ¹²⁵I-FGF2:NgR1-Fc and ¹²⁵I-FGF2:FGFR1-Fc run at apparent molecular weights of 220- and 250-kDa and higher molecular weight complexes containing ¹²⁵I-FGF2 are detected as well (FIG. 3C).

Experiment [5] has as its target B8. The experiment in a line: AP-ligand binding to NgR2 on COS-7 cells. As to the method: as §1
The target of experiment [6] is T1, NgR1-Fc (mouse NogoR/Fc, R&D Systems) (mouse, UniProt Q99PI8 27-447).
T1 construct: also called soluble NgR1-Fc
T1 sequence (looked up): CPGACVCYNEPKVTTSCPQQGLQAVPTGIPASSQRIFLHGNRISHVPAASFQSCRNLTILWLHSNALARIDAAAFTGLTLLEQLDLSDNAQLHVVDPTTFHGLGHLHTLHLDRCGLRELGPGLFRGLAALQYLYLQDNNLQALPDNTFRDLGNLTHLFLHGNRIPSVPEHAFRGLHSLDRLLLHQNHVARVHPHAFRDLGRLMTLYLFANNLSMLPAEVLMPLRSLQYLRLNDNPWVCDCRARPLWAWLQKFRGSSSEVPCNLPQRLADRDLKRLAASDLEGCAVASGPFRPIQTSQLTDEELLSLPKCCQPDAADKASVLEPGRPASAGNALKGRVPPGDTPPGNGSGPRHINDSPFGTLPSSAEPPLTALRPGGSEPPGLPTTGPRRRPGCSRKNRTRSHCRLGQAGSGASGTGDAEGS
The experiment in a line: affinity precipitation with NgR1-Fc on Protein A/G beads, anti-AP Western blot. As to the method: NgR1-Fc (0.5 μg, R&D Systems) and AP-tagged ligands (1.5 nM final conc.) were mixed in DMEM containing 0.1% BSA and protease inhibitor cocktail and were incubated at 4° C. for 2 h. AP-ligands bound to NgR1-Fc were precipitated with Protein A/G agarose beads after 2 h at 4° C. Samples were rinsed extensively in washing buffer (20 mM Tris-HCl, pH 7.5, 150 mM NaCl, 1% NP40, 5 mM EDTA) and analyzed by Western blotting using an anti-AP antibody. For cross-linking experiments, NgR1-Fc, FGFR1D(IIIb)/Fc, TROY-Fc, or ephrinB3-Fc (R&D Systems) (each at 13 nM), were incubated with 40 nM ¹²⁵I-FGF2 (specific activity: ˜50 μCi/μg, MP Biochem.) with or without the indicated concentrations of cold FGF2 or insulin for 2 h at room temperature in PBS. Cross-linking was initiated by adding BS³ (bis[sulfosuccinimidyl]suberate, Pierce, Rockford, Ill.) to a final concentration of 2 mM and incubating for 30 min at room temperature. The reaction was stopped by adding 2 μl of 1 M Tris-HCl (pH 7.4) and protein complexes were analyzed by SDS-PAGE. Gels were subsequently fixed, dried, and subjected to autoradiography.

Experiment [7] has as its target T2, AP-sNgR1^CT+stalk (Phe278-Glu445) (human; rat).
T2 construct: Expressed in HEK293T cells and used as conditioned supernatant
Briefly: AP-fusion protein binding to transfected COS-7 cells; (-) = no binding above background.

Experiment [8] addresses T3, AP-FGF9 (mouse) (human; mouse, UniProt P54130 4-208). Briefly: AP-ligand binding to NgR1 on COS-7 cells. As to the method:
as §1

For experiment [9], the target named is B3. Briefly: AP-ligand binding to NgR1 on COS cells. As to the method:
as §1

The target of experiment [10] is T3, AP-FGF9 (mouse). The experiment in a line: AP-ligand binding to NgR2 on COS-7 cells. As to the method:
as §1

T2 sequence (P05187 other isoform, or with tags, fused parts or gaps): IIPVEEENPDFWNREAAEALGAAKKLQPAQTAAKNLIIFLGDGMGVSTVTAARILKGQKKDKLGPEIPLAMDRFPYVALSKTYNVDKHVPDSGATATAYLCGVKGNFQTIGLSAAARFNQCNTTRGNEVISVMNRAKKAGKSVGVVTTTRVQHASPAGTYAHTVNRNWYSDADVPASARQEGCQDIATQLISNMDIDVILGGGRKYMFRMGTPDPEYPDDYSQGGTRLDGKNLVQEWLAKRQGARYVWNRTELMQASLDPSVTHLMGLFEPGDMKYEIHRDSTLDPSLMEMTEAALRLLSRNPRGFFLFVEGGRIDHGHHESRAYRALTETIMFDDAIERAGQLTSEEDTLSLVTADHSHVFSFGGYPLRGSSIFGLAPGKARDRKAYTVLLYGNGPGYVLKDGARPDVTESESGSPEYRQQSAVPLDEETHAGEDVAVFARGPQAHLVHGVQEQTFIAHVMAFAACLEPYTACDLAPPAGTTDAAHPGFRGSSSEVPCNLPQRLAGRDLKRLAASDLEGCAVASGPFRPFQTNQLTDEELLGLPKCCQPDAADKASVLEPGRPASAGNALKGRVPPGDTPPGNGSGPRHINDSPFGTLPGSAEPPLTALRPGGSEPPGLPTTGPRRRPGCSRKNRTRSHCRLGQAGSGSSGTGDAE

B1: the binding result in experiment [1] and in [2] was “no binding” throughout.

A word on the Kd: it is a measure of binding affinity in units of concentration. Low values mean higher affinity, high ones lower affinity. In the case of B2, the results for the Kd in [3] and in experiment [4] were roughly 10 nM and 16.9 nM, respectively. For the same molecule, the results for the binding result in [5] and in experiment [6] were “no binding” and “binds”, respectively.

As to B3, the binding result (in [7]; with AP-FGF9 (mouse) [8]) was “no binding” in each case.

On to B4, for which the binding result in experiment [1] and in experiment [2] was “no binding” each time.

Consider B5, for which the binding result in experiment [9] is reported as “binds”; in experiment [1], “no binding”.

For the molecule B6, the binding result in [7] was “no binding”.

Consider B7, for which, in experiment [7], the binding result is given as “no binding”.

As to B8, the binding result (in experiment [7]; with AP-FGF9 (mouse) [10]) was “no binding” throughout.
